Reference: patent US7964700B2, “Inhibitors of Taspase1 protease activity” (Dana-Farber Cancer Institute, Inc., priority 2003, dated 2011)
No end group written: not given here.

Target: T1, rTaspase1 (Homo sapiens, UniProt Q9H6P5)
T1 construct: Full-length Taspase1 was cloned from 293T cell cDNA and inserted into the Myc/Flag doubly-tagged expression vector; made in house; host or cells: E. coli BL21(DE3)
T1 sequence (Q9H6P5 1-233): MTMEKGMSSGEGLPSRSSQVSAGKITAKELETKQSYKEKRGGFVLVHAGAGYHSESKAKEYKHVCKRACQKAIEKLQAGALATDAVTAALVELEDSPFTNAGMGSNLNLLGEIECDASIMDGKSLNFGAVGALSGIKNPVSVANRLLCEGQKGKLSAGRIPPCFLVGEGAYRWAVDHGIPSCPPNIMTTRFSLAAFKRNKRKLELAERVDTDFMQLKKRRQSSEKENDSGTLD
T1 sequence (Q9H6P5 234-420): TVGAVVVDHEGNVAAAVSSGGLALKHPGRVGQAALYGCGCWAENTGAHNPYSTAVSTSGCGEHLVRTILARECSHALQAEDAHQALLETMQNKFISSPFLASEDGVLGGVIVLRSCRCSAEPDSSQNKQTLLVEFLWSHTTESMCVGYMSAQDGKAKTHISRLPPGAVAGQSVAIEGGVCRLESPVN
Assay: In vitro cleavage assay: labeled MLL substrate incubated with rTaspase1 and peptide inhibitor, SDS-PAGE and autoradiography
Format: biochemical
Settings: for inhibitory effect on the rTaspase1 enzyme (MLL substrate cleavage) / dose response: effectiveness of polypeptide-aldehyde Taspase1 inhibitors: 5 ng rTaspase1, 20 minutes; for inhibitory effect on the rTaspase1 enzyme (MLL substrate cleavage): then labeled substrate 60 minutes at 37° C.; for dose response: effectiveness of polypeptide-aldehyde Taspase1 inhibitors: concentrations of FIGS. 11A-11C
Method: Polypeptides of varying length (i.e., 4 to 7 amino acids in length) were prepared to identify preferred lengths and sequences of polypeptide inhibitors of Taspase1. The polypeptide inhibitors were based on the amino acid sequence that includes a upstream portion of the CS2 cleavage site of MLL as well as a portion of the CS2 cleavage site (See FIG. 1B and FIG. 9). The peptide inhibitors were purchased from Tufts University Peptide Core Facility and AnaSpec Inc. of San Jose, Calif. 1 mM of each of the inhibitors was incubated with 5 ng of rTaspase1 for 20 minutes before adding labeled substrate for another 60 minutes at 37° C. The results were analyzed by SDS-PAGE followed by autoradiography.
In order to determine a preferred length of polypeptide inhibitors of Taspase1, dose responses were tested for a six amino acid polypeptide inhibitor (KISQLA) (SEQ ID NO:8) and a five amino acid polypeptide inhibitor (ISQLA) (SEQ ID NO:7). The polypeptides were incubated at the concentrations depicted in FIG. 10 with 5 ng of rTaspase1 for 20 minutes before adding labeled MLL substrate for another 60 minutes at 37° C. The results were analyzed by SDS-PAGE followed by autoradiography.
Three modified polypeptide inhibitors were prepared wherein the carboxy terminals of the polypeptides were replaced with an aldehyde (SQLA-aldehyde (SEQ ID NO:17), SQLD-aldehyde (SEQ ID NO:9), and KISQLD-aldehyde (SEQ ID NO:11)). Chemical syntheses of these modified polypeptides is well known to one of skill in the art, and the modified polypeptides are also are available commercially at AnaSpec Inc. of San Jose, Calif. The polypeptides were incubated in the concentrations depicted in FIGS. 11A-11C with 5 ng of rTaspase1 for 20 minutes before adding labeled MLL substrate for another 60 minutes at 37° C. The results were analyzed by SDS-PAGE followed by autoradiography. […] Accordingly, the modified polypeptides can keep the active site of the enzyme occupied for a greater length of time, blocking entrance of the MLL substrate from entering the active site as required for cleavage. […] (See FIG. 11C.).
^35S-methionine labeled MLL substrate was incubated with 2 μl of indicated subcellular fractions or specified amounts of rTaspase1 in cleavage buffer (100 mM HEPES [pH 7.9], 5 mM MgCl2, 20 mM KCl, 5 mM DTT, and 10% sucrose) for 1 hour at 37° C. or indicated periods of time. Protease inhibitors utilized include 8.5 μM Phosphoramidon, 100 μM TLCK, 100 μM TPCK, 5 mM Iodoacetamide, 5 mM N-Ethylmaleimide, 0.3 μM Aprotinin, 100 μM Leupeptin, 1 μM Pepstatin, 1× Complete protease inhibitor cocktail (Roche), 100 μM Antipain, 100 μM APMSF, 10 μM Bestatin, 25 μM ALLN, 100 μM Chymostatin, […] E-64, 5 mM EDTA, 1 mM PMSF, 1 mM EGTA, 50 μM BAF (Boc-Aspartyl-FMK), and 50 μM z-VAD (z-VAD-FMK).

[1] = then labeled MLL substrate 60 minutes at 37° C.

Row | Substance | inhibitory effect on the rTaspase1 enzyme (MLL substrate cleavage) (1 mM inhibitor, FIG. 9) | other results
1 | Ile-Ser-Gln-Leu-Asp (ISQLD; listed as Homo sapiens) | little inhibitory effect | 
2 | KISQA: polypeptide with P1 alanine and omission of the leucine residue at P2 (listed as Homo sapiens) | inhibitory effect was observed | inhibition of rTaspase1 relative to ISQLA (P2 leucine omitted) (1 mM inhibitor, 5 ng rTaspase1, FIG. 9): significantly decreased inhibition
3 | Ser-Gln-Leu-Asp-aldehyde (SQLD-aldehyde) |  | dose response: effectiveness of polypeptide-aldehyde Taspase1 inhibitors [1]: more effective inhibitor than the SQLA-aldehyde
4 | KISdQLA: polypeptide where the P1 aspartate residue was substituted for an alanine residue (KISDQLA; not fully specified (residue 4); printed as KISdQLA; listed as Homo sapiens) | inhibitory effect was observed | 
5 | KISQLD: six amino acid polypeptide based on the sequence upstream of the CS2 cleavage site of MLL (listed as Homo sapiens) | little inhibitory effect | 
6 | SQLD: four amino acid polypeptide based on the sequence upstream of the CS2 cleavage site of MLL (listed as Homo sapiens) | little inhibitory effect | 
7 | Lys-Ile-Ser-Gln-Leu-Asp-aldehyde (KISQLD-aldehyde) |  | dose response: effectiveness of polypeptide-aldehyde Taspase1 inhibitors [1]: more effective than both of the four amino acid aldehyde
8 | KISQLA | inhibitory effect was observed | 
9 | Ile-Ser-Gln-Leu-Ala (ISQLA; listed as Homo sapiens) |  | dose response: effectiveness as Taspase1 inhibitor, five versus six amino acid polypeptide (concentrations of FIG. 10, 5 ng rTaspase1, 20 minutes, then labeled MLL substrate 60 minutes at 37° C.): more effective inhibitor at lower concentrations than the corresponding six amino acid polypeptide
